Source: the supplement of paper PMC9732359
± gives the uncertainty stated by the source.

Test: protein stability index of a GFP-peptide fusion (yeast GPS) (PSI 1-4); higher = more stable; sorted into four equal gates, so the index is relative within each strain
How it was run: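 For each peptide, the protein stability index sums the read frequency in every gate after multiplying it by the gate number. Read frequencies came from plasmids that were PCR-amplified from each gate and Illumina-sequenced, with reads assigned to strains by barcodes. The gates were four equal bins of GFP/Cherry fluorescence ratio applied to mid-log yeast in leucine-free medium carrying a pooled library of tiled 17-residue yeast protein peptides fused downstream of GFP on a Cherry-expressing plasmid.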

Row | Sequence | protein stability index (doa10∆) | protein stability index (pdr5∆) | protein stability index (san1∆) | protein stability index (ubr1∆)
1 | VAESFTDEADSSMTEAS [SNF2] | 3.46 ± 0.12 | 3.28 ± 0.11 | 3.38 ± 0.053 | 3.14 ± 0.096
2 | PLLVPGMTPCTVSPDFV [FAS1] | 1.64 ± 0.096 | 2.38 ± 0.055 | 1.98 ± 0.11 | 1.64 ± 0.065
3 | NLHALSMSLQSKNLGEI [SWI1] | 2.57 ± 0.058 | 2.61 ± 0.077 | 2.04 ± 0.17 | 2.66 ± 0.068
4 | EDNAGVIANPKGEMKGS [RPL23A] | 1.82 ± 0.18 | 1.92 ± 0.056 | 2.28 ± 0.13 | 1.85 ± 0.059
5 | EVCAKMPNIELYLKVIP [SSN2] | 2.71 ± 0.047 | 2.51 ± 0.045 | 2.48 ± 0.052 | 2.26 ± 0.039
6 | DYDVSKKASEISVSSRS [SRP14] | 3.52 ± 0.15 |  | 3.2 ± 0.15 | 2.98 ± 0.21
7 | TKRLGTPESVKPANASH [RGR1] | 2.37 ± 0.08 | 2.63 ± 0.077 | 2.26 ± 0.11 | 2.76 ± 0.095
8 | QILIFAADTSIVEQDKS [YJL039C/NUP192] | 2.04 ± 0.13 | 2.44 ± 0.21 | 2.45 ± 0.18 | 2.54 ± 0.25
9 | LQNLQRIIRKKIFIAVV [RRI2] | 1.21 ± 0.078 | 1.19 ± 0.073 |  | 1.16 ± 0.091
10 | FSYFFESFESYHNLTTH [RPN6] | 2.61 ± 0.089 | 2.65 ± 0.082 | 2.85 ± 0.084 | 2.78 ± 0.066
11 | YASFNDTFVHVTDLSGK [RPS14B] | 2.31 ± 0.098 | 2.88 ± 0.08 | 2.52 ± 0.084 | 2.73 ± 0.094
12 | YARFKNDFFPGEVVYLR [ITC1] | 3.29 ± 0.083 | 1.99 ± 0.069 | 2.58 ± 0.1 | 3.22 ± 0.091
13 | YQELGSLQSSSQTQLEN [MED2] | 2.96 ± 0.11 | 3.3 ± 0.082 | 3.08 ± 0.08 | 3.17 ± 0.072
14 | VFVKKHHELIKVKHDSQ [SSN2] | 1.32 ± 0.07 | 1.29 ± 0.053 | 1.18 ± 0.095 | 1.35 ± 0.051
15 | DDEDDEHNPTIVGGLYY [AAR2] | 3.22 ± 0.12 | 3.14 ± 0.079 | 3.17 ± 0.064 | 3.4 ± 0.1
16 | KSLGGGAALKDIEIVRV [FAS2] | 2.27 ± 0.26 | 3.39 ± 0.15 | 3.17 ± 0.088 | 
17 | FITKHLPLLILENSSRS [NUT1] | 1.36 ± 0.098 | 1.41 ± 0.067 | 1.12 ± 0.2 | 1.14 ± 0.032
18 | SEGFEPTFSTHAQLLLS [PRP8] | 1.96 ± 0.038 | 2.08 ± 0.037 | 1.66 ± 0.048 | 1.97 ± 0.034
19 | NENDKIYLLFQSSGKLK [YDL116W/NUP84] | 2.43 ± 0.049 | 2.5 ± 0.049 | 2.44 ± 0.048 | 2.72 ± 0.034
20 | MLLITSGDSGVYTLACR [RPC11] | 1.58 ± 0.1 | 2.45 ± 0.13 | 3 ± 0.093 | 2.46 ± 0.088
21 | DPQDVFNYNIFMHDPSV [SIR2] | 2.66 ± 0.08 | 2.02 ± 0.074 | 1.35 ± 0.12 | 2.69 ± 0.089
22 | RELTKNILWRIADKTTY [SIR4] | 3.02 ± 0.094 | 2.6 ± 0.065 | 2.68 ± 0.11 | 3.02 ± 0.05
23 | EPAEANEENDLDVDPAK [RPB2] | 3.3 ± 0.18 | 3.15 ± 0.19 | 3.17 ± 0.13 | 3.41 ± 0.17
24 | FMLRKQDPKTLVALLSR [SSN2] | 1.6 ± 0.055 | 1.84 ± 0.041 | 1.85 ± 0.079 | 2.09 ± 0.043
25 | RTSTRGRGRGRGRGRGR [SNF2] | 3.41 ± 0.11 | 3.17 ± 0.12 | 2.86 ± 0.098 | 3.08 ± 0.15
26 | DLKSLNVRDDMKPSDNI [SSN2] | 2.94 ± 0.22 | 2.59 ± 0.18 | 2.62 ± 0.16 | 2.57 ± 0.097
27 | LKGKINNEMKSLQRSKS [SMC1] |  | 3.34 ± 0.19 | 3.11 ± 0.2 | 3.44 ± 0.099

Row | Sequence | protein stability index (doa10∆) | protein stability index (pdr5∆) | protein stability index (san1∆) | protein stability index (ubr1∆)
28 | RYLDNLKQEIDRGLSIK [SNU114] | 3.02 ± 0.15 | 2.9 ± 0.17 | 3.4 ± 0.18 | 2.97 ± 0.082
29 | RLLAKDAMIAQRSKKIQ [DIS3] | 1.24 ± 0.1 | 1.92 ± 0.091 | 1.41 ± 0.072 | 1.59 ± 0.069
30 | TQVYKLGLAKSVHHARV [RPS9A] | 1.94 ± 0.089 | 1.48 ± 0.053 | 1.55 ± 0.14 | 1.24 ± 0.066
31 | SDPVCLFVCNKDPDVPL [POP3] | 1.91 ± 0.053 | 2.35 ± 0.075 | 2.31 ± 0.084 | 2.52 ± 0.081
32 | YGMSITETFEKPQRTNT [RPB2] | 3.03 ± 0.14 | 3.35 ± 0.17 | 3.04 ± 0.12 | 3.12 ± 0.11
33 | EFNFTNLQAKPLVGKPK [YAR002W/NUP60] | 2.1 ± 0.06 | 2.35 ± 0.055 | 2.27 ± 0.077 | 2.25 ± 0.042
34 | LQNKSFKSVLPIVLLNT [UBP6] | 1.91 ± 0.067 | 1.45 ± 0.1 | 1.87 ± 0.12 | 2.1 ± 0.072
35 | TDSSALTYDRLEFATIR [PRE9] | 3.07 ± 0.081 | 3.27 ± 0.076 | 3.01 ± 0.056 | 3.18 ± 0.045
36 | NFNSSLHKRQQFSESTH [YJL039C/NUP192] | 3.12 ± 0.12 | 3.14 ± 0.08 | 2.82 ± 0.063 | 3.03 ± 0.061
37 | FSSSVSLSYMAFPNASK [RRP40] | 1.65 ± 0.078 | 1.76 ± 0.074 | 1.65 ± 0.12 | 1.72 ± 0.072
38 | NPIDPFNIIREFRSAAG [YDL116W/NUP84] | 3.14 ± 0.074 | 3.14 ± 0.07 | 3.16 ± 0.043 | 3.09 ± 0.063
39 | KAEVTQLSNGIVVATEH [COR1] | 2.58 ± 0.17 | 3.15 ± 0.11 | 3.18 ± 0.18 | 2.96 ± 0.11
40 | EMEVDAEGEEVEVKAEI [RPN1] | 3.48 ± 0.091 | 3.74 ± 0.24 | 3.55 ± 0.093 | 3.39 ± 0.079
41 | NFNDIPPSVTLQDWQRE [YDL088C/ASM4] | 2.51 ± 0.078 | 2.31 ± 0.054 | 2.44 ± 0.077 | 3.09 ± 0.053
42 | QVGLNFELSFTGAPPYY [YMR129W/POM152] | 2.35 ± 0.053 | 2.08 ± 0.061 | 1.58 ± 0.061 | 1.93 ± 0.031
43 | ASHNEKDQDSQIELSCN [SRP72] | 2.85 ± 0.079 | 2.41 ± 0.079 | 2.9 ± 0.051 | 3.1 ± 0.058
44 | LSDIETAVNGIDTDLFG [YGL172W/NUP49] | 3.11 ± 0.079 | 3.16 ± 0.086 | 3.2 ± 0.062 | 3.19 ± 0.055
45 | HGGSRYATKDGVAHLLN [QCR2] | 3.13 ± 0.094 | 2.82 ± 0.055 | 3.3 ± 0.1 | 3.09 ± 0.072
46 | FGKTGDQKETKKGESEK [YOR098C/NUP1] | 3.4 ± 0.1 | 3.4 ± 0.11 | 3.45 ± 0.076 | 3.35 ± 0.061
47 | KLSDNISICMILCGIQE [YDL116W/NUP84] | 2.23 ± 0.074 | 1.86 ± 0.083 | 2.62 ± 0.12 | 2.06 ± 0.11
48 | PIYTGDGWVKLTYKSEL [YMR153W/NUP53] | 2.24 ± 0.081 | 2.38 ± 0.09 | 2.45 ± 0.11 | 1.98 ± 0.049
49 | FKGLETPLKARQREMAE [YLR018C/POM34] | 3.27 ± 0.1 | 3.29 ± 0.1 | 2.91 ± 0.088 | 3.41 ± 0.069
50 | NPMVPSSVNEDTFLPPP [PRP8] | 3.05 ± 0.058 | 3.32 ± 0.06 | 3.01 ± 0.04 | 3.1 ± 0.043
51 | SNLEKLPKYKEKKAASA [MED7] | 2.14 ± 0.06 | 2.82 ± 0.06 | 2.83 ± 0.06 | 2.25 ± 0.057
52 | TNVNVKIKDVQQQIESN [SMC3] | 3.19 ± 0.088 | 3.17 ± 0.081 | 3.18 ± 0.074 | 2.79 ± 0.1
53 | STATRNVTMIDDLIHFT [COR1] | 2.68 ± 0.097 | 2.81 ± 0.092 | 2.82 ± 0.086 | 2.89 ± 0.085
